Data as given in patent publication US20110105397A1, “METHOD FOR TREATING HEART FAILURE WITH STRESSCOPIN-LIKE PEPTIDES” (priority 2009, published 2011).
“And” between values parts separate entries of the source, which are not always exact repeats. Identical values can stand only once. Where no end group is shown, it is not given here.

What was measured:
[1] = target: T1, human corticotrophin releasing hormone receptor type 2 (CRHR2) (human) (UniProt Q13324); assay: cell-based or functional assay
T1 sequence (looked up): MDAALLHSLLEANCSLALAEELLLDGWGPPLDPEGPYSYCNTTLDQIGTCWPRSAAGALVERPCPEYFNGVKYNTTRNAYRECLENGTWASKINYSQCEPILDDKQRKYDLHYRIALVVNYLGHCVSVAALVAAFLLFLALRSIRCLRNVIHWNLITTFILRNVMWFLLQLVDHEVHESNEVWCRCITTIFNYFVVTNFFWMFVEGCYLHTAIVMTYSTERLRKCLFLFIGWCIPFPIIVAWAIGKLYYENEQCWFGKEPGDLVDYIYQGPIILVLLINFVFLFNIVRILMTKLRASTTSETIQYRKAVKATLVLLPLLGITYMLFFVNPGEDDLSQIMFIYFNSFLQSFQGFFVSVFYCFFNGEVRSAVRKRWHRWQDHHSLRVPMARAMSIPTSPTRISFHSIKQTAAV

[2] = target: T2, human corticotrophin releasing hormone receptor type 1 (CRHR1) (human, UniProt P34998 24-415); assay: radioligand competition against [125I]-(Tyr0)-sauvagine, CRHR1 assay; ND = Not detectable
T2 construct: whole, on cells; cAMP assay on whole cells; radioligand assay on cell membranes; also called h-CRHR1; CRH receptor type 1
T2 sequence (looked up): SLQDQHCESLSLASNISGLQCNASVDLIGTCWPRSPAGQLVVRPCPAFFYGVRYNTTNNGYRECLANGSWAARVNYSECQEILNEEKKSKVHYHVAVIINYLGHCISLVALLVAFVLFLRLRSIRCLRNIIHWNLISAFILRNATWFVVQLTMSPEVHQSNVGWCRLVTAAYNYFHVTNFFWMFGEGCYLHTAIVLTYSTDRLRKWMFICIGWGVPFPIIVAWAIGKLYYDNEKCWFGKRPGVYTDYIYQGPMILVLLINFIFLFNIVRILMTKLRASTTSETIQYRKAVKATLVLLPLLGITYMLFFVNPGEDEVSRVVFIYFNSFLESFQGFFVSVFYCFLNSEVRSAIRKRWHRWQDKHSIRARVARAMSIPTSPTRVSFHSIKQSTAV

[3] = target: T1, human corticotrophin releasing hormone receptor type 2 (CRHR2) (human); assay: radioligand competition against [125I]-anti-sauvagine-30, membranes of SK-N-MC cells with human CRHR2

- pA50 [1]: 9.32 -log10(M) and 9.58 -log10(M) and 9.23 -log10(M)
- binding result [2]: no binding
- pKI [3]: 7.57 -log10(M)
Binder: HPGSRIVLSLDVPIGLLQILLEQARARAAREQATTNARILARV-NH2 (also called h-SRP) [human stresscopin related peptide]
